Article PMC4294129 (Drug Design, Development and Therapy, 2015)

Key:
GST-tagged α2A domain = GST-tagged α2A domain (UniProt P17301); test: ELISA
human platelets = test: Collagen I-induced platelet aggregation in platelet rich plasma; type: cell-based; details: 10 μM, 2 μg/mL collagen I, saline 85%±19%, mean ± SD, four donors

Chain of UniProt P17301 (P17301 30-1181): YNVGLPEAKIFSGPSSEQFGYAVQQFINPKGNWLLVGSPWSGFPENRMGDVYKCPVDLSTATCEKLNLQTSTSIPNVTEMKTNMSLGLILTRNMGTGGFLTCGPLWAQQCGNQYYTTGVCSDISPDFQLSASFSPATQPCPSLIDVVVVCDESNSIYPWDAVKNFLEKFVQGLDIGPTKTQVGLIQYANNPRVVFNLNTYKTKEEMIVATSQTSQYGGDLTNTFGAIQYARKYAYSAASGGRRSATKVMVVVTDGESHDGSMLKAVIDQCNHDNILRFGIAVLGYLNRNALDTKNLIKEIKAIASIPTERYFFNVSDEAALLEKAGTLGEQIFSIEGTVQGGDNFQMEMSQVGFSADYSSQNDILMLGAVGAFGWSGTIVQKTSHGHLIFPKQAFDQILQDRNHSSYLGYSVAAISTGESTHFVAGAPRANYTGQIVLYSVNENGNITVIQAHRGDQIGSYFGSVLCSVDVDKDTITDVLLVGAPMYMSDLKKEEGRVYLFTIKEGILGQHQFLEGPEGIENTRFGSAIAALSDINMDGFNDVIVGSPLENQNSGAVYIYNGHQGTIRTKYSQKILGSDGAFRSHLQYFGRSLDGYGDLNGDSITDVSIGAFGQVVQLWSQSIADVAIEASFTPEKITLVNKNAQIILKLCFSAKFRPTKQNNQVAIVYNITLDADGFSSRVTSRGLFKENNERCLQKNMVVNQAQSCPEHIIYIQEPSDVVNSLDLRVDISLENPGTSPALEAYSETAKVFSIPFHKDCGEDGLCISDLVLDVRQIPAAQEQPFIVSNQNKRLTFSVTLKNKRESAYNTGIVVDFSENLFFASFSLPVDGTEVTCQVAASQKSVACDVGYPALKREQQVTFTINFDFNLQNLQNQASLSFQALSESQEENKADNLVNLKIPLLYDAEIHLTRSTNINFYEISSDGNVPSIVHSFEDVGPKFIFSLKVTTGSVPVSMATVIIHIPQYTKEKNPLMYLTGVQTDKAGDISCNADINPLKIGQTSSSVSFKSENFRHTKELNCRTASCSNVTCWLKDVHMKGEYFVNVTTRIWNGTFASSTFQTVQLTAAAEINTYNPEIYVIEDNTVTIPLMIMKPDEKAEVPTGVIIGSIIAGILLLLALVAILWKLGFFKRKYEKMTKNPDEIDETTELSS

Molecule	percent inhibition of GST-α2A binding to collagen I (GST-tagged α2A domain) [%]	platelet aggregation, collagen-induced, in PRP (human platelets)
Vipegitide (peptide)	30	
Vipegitide-PEG2 (peptide)	30	
CC(=O)Oc1cc2c(s1)CCN(C(C(=O)C1CC1)c1ccccc1F)C2 (stereo not drawn) [prasugrel]		34%±18%
